Experimental data as given in patent US11584938B2, “Plant EPSPS mutant containing L195P and S247G mutations and encoding gene and use thereof” (GEVOTO LLC, priority 2017, dated 2023).

Tested on: transgenic rice plants
Experiment: glyphosate resistance of the EPSPS mutant in transgenic rice plants sprayed with Roundup 41% ammonium glyphosate
Assay type: in vivo, rice (Nipponbare)
Procedure, shortened: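 EPSPS mutant genes were cloned into pGVP1 and introduced into Nipponbare rice embryo-derived calluses via Agrobacterium EHA105 (OD 0.2, 10 min infection, 2–3 days co-culture at 25 °C in the dark). Calluses went through recovery, two 14-day screening rounds at 30 °C, two differentiation rounds and rooting to regenerate transgenic plants.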

[1] = 1× dosage 1060 g/hectare glyphosate sprayed, recorded on 10th day
[2] = 2× dosage 2120 g/hectare sprayed to plants surviving 1×, recorded 10 days later
[3] = 5× dosage 5300 g/hectare sprayed to plants surviving 2×, recorded 10 days later
[4] = 20× dosage 21200 g/hectare sprayed to plants surviving 5×, recorded 10 days later

B1: R0: wild-type rice EPSPS, amino acid sequence SEQ ID NO: 28; control (protein, listed as Oryza sativa)
chain: MASNAAAAAAKAEEIVLQPIREISGAVQLPGSKSLSNRILLLSALSEGTTVVDNLLNSEDVHYMLEALKALGLSVEADKVAKRAVVVGCGGKFPVEKDAKEEVQLFLGNAGTAMRPLTAAVTAAGGNATYVLDGVPRMRERPIGDLVVGLKQLGADVDCFLGTECPPVRVKGIGGLPGGKVKLSGSISSQYLSALLMAAPLALGDVEIEIIDKLISIPYVEMTLRLMERFGVKAEHSDSWDRFYIKGGQKYKSPGNAYVEGDASSASYFLAGAAITGGTVTVQGCGTTSLQGDVKFAEVLEMMGAKVTWTDTSVTVTGPPREPYGKKHLKAVDVNMNKMPDVAMTLAVVALFADGPTAIRDVASWRVKETERMVAIRTELTKLGASVEEGPDYCIITPPEKLNITAIDTYDDHRMAMAFSLAACADVPVTIRDPGCTRKTFPNYFDVLSTFVRN
- %++&+++ (percentage of plant having medium and high glyphosate resistance to the total number of plants observed) [1]: 0.0%
- number of plants denoted by + (low glyphosate resistance) [1]: 1
- number of plants denoted by ++ (medium glyphosate resistance) [1]: 0
- number of plants denoted by +++ (high glyphosate resistance) [1]: 0
- number of plants denoted by − (no glyphosate resistance) [1]: 30
- glyphosate resistance / survival of the rice transformed by the EPSPS, in words (1× glyphosate dosage): had no resistance, one was seriously damaged, and all the others died
- %++&+++ (percentage of plant having medium and high glyphosate resistance to the total number of plants observed) [2]: 45.8%
- number of plants denoted by + (low glyphosate resistance) [2]: 0
- number of plants denoted by ++ (medium glyphosate resistance) [2]: 0
- number of plants denoted by +++ (high glyphosate resistance) [2]: 0
- number of plants denoted by − (no glyphosate resistance) [2]: 31
- &++&+++ (percentage of plant having medium and high glyphosate resistance to the total number of plants observed) [3]: 0.0%
- number of plants denoted by + (low glyphosate resistance) [3]: 0
- number of plants denoted by ++ (medium glyphosate resistance) [3]: 0
- number of plants denoted by +++ (high glyphosate resistance) [3]: 0
- number of plants denoted by − (no glyphosate resistance) [3]: 31
- &++&+++ (percentage of plant having medium and high glyphosate resistance to the total number of plants observed) [4]: 0.0%
- number of plants denoted by + (low glyphosate resistance) [4]: 0
- number of plants denoted by ++ (medium glyphosate resistance) [4]: 0
- number of plants denoted by +++ (high glyphosate resistance) [4]: 0
- number of plants denoted by − (no glyphosate resistance) [4]: 31

B2: T5: wheat EPSPS mutant, SEQ ID NO: 24, mutations L216(195)P and S269(247)G (protein)
chain: MATSVAAPAAPAGAEEVVLQPIREISGAVQLPGSKSLSNRILLLSALSEGTTVVDNLLNSEDVHYMLEALEALGLSVEADKVAKRAVVVGCGGRFPVEKDAKEEVKLFLGNAGTAMRPLTAAVVAAGGNATYVLDGVPRMRERPIGDLVVGLQQLGADVDCFLGTNCPPVRINGKGGLPGGKVKLSGSISSQYLSSLLMAAPLALEDVEIEIIDKPISVPYVEMTLKLMEHFGVTAEHSDSWDRFYIKGGQKYKSPGNAYVEGDASSAGYFLAGAAITGGTVTVEGCGTTSLQGDVKFAEVLEMMGAKVTWTDTSVTVTGPPRQPFGRKHLKAVDVNMNKMPDVAMTLAVVALFADGPTAIRDVASWRVKETERMVAIRTELTKLGATVEEGPDYCIITPPEKLNITAIDTYDDHRMAMAFSLAACAEVPVTIRDPGCTRKTFPNYFDVLSTFVKN
- %++&+++ (percentage of plant having medium and high glyphosate resistance to the total number of plants observed) [1]: 45.5%
- number of plants denoted by + (low glyphosate resistance) [1]: 6
- number of plants denoted by ++ (medium glyphosate resistance) [1]: 3
- number of plants denoted by +++ (high glyphosate resistance) [1]: 7
- number of plants denoted by − (no glyphosate resistance) [1]: 6
- glyphosate resistance / survival of the rice transformed by the EPSPS, in words (1× glyphosate dosage): obviously superior to that of the rice seedlings transformed by T0
- %++&+++ (percentage of plant having medium and high glyphosate resistance to the total number of plants observed) [2]: 84.6%
- number of plants denoted by + (low glyphosate resistance) [2]: 8
- number of plants denoted by ++ (medium glyphosate resistance) [2]: 4
- number of plants denoted by +++ (high glyphosate resistance) [2]: 0
- number of plants denoted by − (no glyphosate resistance) [2]: 10
- glyphosate resistance / survival of the rice transformed by the EPSPS, in words (2× glyphosate dosage): some of the transgenic rice seedlings transformed by T4, T1 and T5 still survived
- &++&+++ (percentage of plant having medium and high glyphosate resistance to the total number of plants observed) [3]: 18.2%
- number of plants denoted by + (low glyphosate resistance) [3]: 5
- number of plants denoted by ++ (medium glyphosate resistance) [3]: 4
- number of plants denoted by +++ (high glyphosate resistance) [3]: 0
- number of plants denoted by − (no glyphosate resistance) [3]: 13
- glyphosate resistance / survival of the rice transformed by the EPSPS, in words (5× glyphosate dosage): some of the transgenic rice seedlings transformed by T4, T1 and T5 still survived
- &++&+++ (percentage of plant having medium and high glyphosate resistance to the total number of plants observed) [4]: 13.6%
- number of plants denoted by + (low glyphosate resistance) [4]: 3
- number of plants denoted by ++ (medium glyphosate resistance) [4]: 3
- number of plants denoted by +++ (high glyphosate resistance) [4]: 0
- number of plants denoted by − (no glyphosate resistance) [4]: 16

B3: T6: wheat EPSPS mutant, SEQ ID NO: 26, mutations L216(195)P, S269(247)G and P118(101)S (protein)
chain: MATSVAAPAAPAGAEEVVLQPIREISGAVQLPGSKSLSNRILLLSALSEGTTVVDNLLNSEDVHYMLEALEALGLSVEADKVAKRAVVVGCGGRFPVEKDAKEEVKLFLGNAGTAMRSLTAAVVAAGGNATYVLDGVPRMRERPIGDLVVGLQQLGADVDCFLGTNCPPVRINGKGGLPGGKVKLSGSISSQYLSSLLMAAPLALEDVEIEIIDKPISVPYVEMTLKLMEHFGVTAEHSDSWDRFYIKGGQKYKSPGNAYVEGDASSAGYFLAGAAITGGTVTVEGCGTTSLQGDVKFAEVLEMMGAKVTWTDTSVTVTGPPRQPFGRKHLKAVDVNMNKMPDVAMTLAVVALFADGPTAIRDVASWRVKETERMVAIRTELTKLGATVEEGPDYCIITPPEKLNITAIDTYDDHRMAMAFSLAACAEVPVTIRDPGCTRKTFPNYFDVLSTFVKN
- %++&+++ (percentage of plant having medium and high glyphosate resistance to the total number of plants observed) [1]: 85.9%
- number of plants denoted by + (low glyphosate resistance) [1]: 7
- number of plants denoted by ++ (medium glyphosate resistance) [1]: 15
- number of plants denoted by +++ (high glyphosate resistance) [1]: 52
- number of plants denoted by − (no glyphosate resistance) [1]: 4
- glyphosate resistance / survival of the rice transformed by the EPSPS, in words (1× glyphosate dosage): had relatively high resistance to glyphosate
- %++&+++ (percentage of plant having medium and high glyphosate resistance to the total number of plants observed) [2]: 0.0%
- number of plants denoted by + (low glyphosate resistance) [2]: 4
- number of plants denoted by ++ (medium glyphosate resistance) [2]: 25
- number of plants denoted by +++ (high glyphosate resistance) [2]: 41
- number of plants denoted by − (no glyphosate resistance) [2]: 8
- &++&+++ (percentage of plant having medium and high glyphosate resistance to the total number of plants observed) [3]: 76.9%
- number of plants denoted by + (low glyphosate resistance) [3]: 9
- number of plants denoted by ++ (medium glyphosate resistance) [3]: 37
- number of plants denoted by +++ (high glyphosate resistance) [3]: 23
- number of plants denoted by − (no glyphosate resistance) [3]: 9
- &++&+++ (percentage of plant having medium and high glyphosate resistance to the total number of plants observed) [4]: 71.8%
- number of plants denoted by + (low glyphosate resistance) [4]: 7
- number of plants denoted by ++ (medium glyphosate resistance) [4]: 56
- number of plants denoted by +++ (high glyphosate resistance) [4]: 0
- number of plants denoted by − (no glyphosate resistance) [4]: 15
